Data on two molecules can be found in PMC8609364, “A Selective Tether Recruits Activated Response Regulator CheB to Its Chemoreceptor Substrate” (mBio, 2021).

Test [1] deals with Tar4QΔpp (chemoreceptor Tar, all-glutaminyl, lacking NWETF). The test can be described thus: CheB binding to Tar4QΔpp (pentapeptide-lacking) in Nanodiscs (biolayer interferometry). As to conditions: Tar 4Q, pentapeptide no, BLI, pH 7.5, 2% BSA (plus 2 mM DTT for CheB and CheBc); for dwell time (1/koff): calculated from mean koff; for dwell time (1/koff) / KA (equilibrium association constant): propagated SD; for KA (equilibrium association constant): calculated from mean kon and koff; for kon (apparent association rate constant): mean ± SD of at least three independent experiments. Also on record: species or system E. coli. On the procedure:
(§1) We determined the kinetics of association and dissociation of methylesterase/deamidase CheB in its low- and high-activity form with the E. coli aspartate chemoreceptor Tar using biolayer interferometry ([22], [23]) and isolated receptor homodimers in Nanodiscs ([24], [25]). Apparent rate constants of association and dissociation were derived from global fits of time courses for binding and release (see Fig. S1 in the supplemental material). Equilibrium dissociation constants were calculated from those apparent rate constants.
(§2) E. coli CheB and Salmonella CheB D56C/C207S/C309S and D56C/S164A/C207S/C309S were purified as described previously ([11]). CheBC (amino acids [aa] 153 to 349) was purified using the procedure of West et al. ([40]), except that Bio-Gel P-60, was not used. CheB D56C/C207S/C309S and CheB D56C/S164A/C207S/C309S were modified to create a disulfide-linked phosphoryl group on D56C following the procedure described in reference but using a 10-fold molar excess of DTNB [Ellman’s reagent, 5,5′-disulfanediylbis(2-nitrobenzoic acid)] rather than 90-fold and a 50-fold molar excess Na3SPO3 rather than 1,000-fold. The extent of modification was 59% for the former and 60% for the latter determined by reversed phase chromatography essentially as described previously ([26]) and confirmed by Nano LC-Nanospray QTQF mass spectroscopy. Membrane scaffold protein MSP1D1(-) ([41]) was purified as described previously ([25]). Tar4E L378C, Tar4Q L378C, Tar4EΔpp-6H L378C, and Tar4QΔpp-6H L378C were purified, incorporated into Nanodiscs at approximately one receptor dimer per disc, and biotinylated at L378C as described previously ([23], [42]). […] These activities were confirmed for representative samples used in our analyses. Receptor-containing Nanodiscs were dialyzed into 50 mM Tris-HCl (pH 7.5), 0.5 mM EDTA, 10% (wt/vol) glycerol, and 100 mM NaCl. Prior to a binding experiment, the solution was changed using a spin desalting column to 50 mM Tris-HCl, 10% (wt/vol) glycerol, 5 mM MgCl2, and 50 mM KCl (pH 7.5).
(§3) Kinetics of CheB association and dissociation with Nanodisc-embedded Tar biotinylated at L378C were determined using biolayer interferometry ([22], [23]) as measured by a BLItz instrument (ForteBio, Menlo Park, CA, USA) and described in reference. Representative time course experiments are shown in Fig. S1 in the supplemental material. Measurements for CheB-P* and CheB-P*-I were in 50 mM Tris-HCl (pH 7.5), 10% (wt/vol) glycerol, 5 mM MgCl2, 50 mM KCl, and 2% (wt/vol) bovine serum albumin (BSA). Measurements for CheB and CheBc were in the same solution plus 2 mM dithiothreitol (DTT).
(§4) Using BLItz software, response curves were fit globally to a 1:1 binding model to yield apparent association rate constants (kon) and dissociation rate constants (koff). For analysis of complex patterns of binding, in which more than one binding reaction appeared to be contributing, for instance one that appeared saturable and another nonspecific, nonsaturable, the data were exported and fit globally to nonlinear exponential functions using OriginPro 2017. The best fits to the data were obtained using the following functions. R=R0 + Req[a(e^−kd1 t) + b(e^−kd2 t)] was used to globally fit dissociation time courses, with R being the response (in nanometers), a + b = 1, with a and b being the portion of the signal (in nanometers) for fast and slow phases, respectively, kd1 and kd2 being the respective dissociation rate constants, and Req being the response at equilibrium. Association data were fit using apparent dissociation rate constants kd1 and kd2, relevant CheB concentrations (C) and the equation R=R0 + Req[a(1 − e^−(ka1 C+kd1)t) + b(1 − e^−(ka2 C+kd2)t)]

Test [2] concerns Tar4Q (chemoreceptor Tar, all-glutaminyl, pentapeptide-bearing). As to the kind of experiment: CheB binding to pentapeptide-bearing Tar4Q in Nanodiscs (biolayer interferometry). Also on record: species or system E. coli. The settings on record: Tar 4Q, pentapeptide yes, BLI; for dwell time (1/koff) / KA (equilibrium association constant) / kon (apparent association rate constant): pH 7.5, 2% BSA (plus 2 mM DTT for CheB and CheBc); for dwell time (1/koff): calculated from mean koff; for kon (apparent association rate constant): mean ± SD of at least three independent experiments. On the procedure: as §1, §2, §3, §4

Test [3] has as its system Tar4E (chemoreceptor Tar, all-glutamyl, pentapeptide-bearing). The test can be described thus: CheB binding to pentapeptide-bearing Tar4E in Nanodiscs (biolayer interferometry). More on the design: species or system E. coli. As to conditions: Tar 4E, pentapeptide yes, BLI; for dwell time (1/koff) / KA (equilibrium association constant) / kon (apparent association rate constant): pH 7.5, 2% BSA (plus 2 mM DTT for CheB and CheBc); for dwell time (1/koff): calculated from mean koff; for kon (apparent association rate constant): mean ± SD of at least three independent experiments. On the procedure: as §1
Supplementary file : FIG S1 Example time courses of CheB binding to Tar. Time courses from five consecutive runs of CheB at different concentrations binding to immobilized Tar4E homodimers. For each time course, a sensor tip decorated with avidin to which were bound biotinylated Tar homodimers in Nanodiscs was placed in buffer and a baseline was established (240 to 255 s). The tip was then placed in a tube containing a solution of CheB at a specific concentration. After 30 s, at which time binding of CheB and Tar was close to an apparent equilibrium, the tip was switched to a tube of buffer, and dissociation was monitored. The global fit to the data is shown as a thin black line. Download FIG S1, TIF file, 1.9 MB.
as §2, §3
Using BLItz software, response curves were fit globally to a 1:1 binding model to yield apparent association rate constants (kon) and dissociation rate constants (koff). For analysis of complex patterns of binding, in which more than one binding reaction appeared to be contributing, for instance one that appeared saturable and another nonspecific, nonsaturable, the data were exported and fit globally to nonlinear exponential functions using OriginPro 2017. The best fits to the data were obtained using the following functions. […]

Test [4] relates to Tar4EΔpp (chemoreceptor Tar, all-glutamyl, lacking NWETF). The test can be described thus: CheB binding to Tar4EΔpp (pentapeptide-lacking) in Nanodiscs (biolayer interferometry). As to conditions: Tar 4E, pentapeptide no, BLI, pH 7.5, 2% BSA (plus 2 mM DTT for CheB and CheBc); for dwell time (1/koff): calculated from mean koff; for dwell time (1/koff) / KA (equilibrium association constant): propagated SD; for KA (equilibrium association constant): calculated from mean kon and koff; for kon (apparent association rate constant): mean ± SD of at least three independent experiments. Also on record: species or system E. coli. On the procedure: as §1, §2, §3, §4

Test [5] addresses Tar4QΔpp-6H L378C, E. coli Tar lacking the carboxyl-terminal pentapeptide, all-glutaminyl form, homodimer in … (E. coli, UniProt P07017 1-553, L378C, biotinylated at L378C). As to the kind of experiment: SPR.
The mark [6] stands for this setting: calculated from mean kon and koff, propagated SD.
Setting [7] is: 50 mM Tris-HCl pH 7.5, 10% glycerol, 5 mM MgCl2, 50 mM KCl, 2% BSA (plus 2 mM DTT for CheB and CheBc), calculated from mean kon and koff, propagated SD, read-out: KD (equilibrium dissociation constant).

B1: CheBC, catalytic domain of E. coli CheB lacking the regulatory domain and linker (domain or fragment)
chain: LSSEKLIAIGASTGGTEAIRHVLQPLPLSSPALLITQHMPPGFTRSFADRLNKLCQIGVKEAEDGERVLPGHAYIAPGDRHMELSRSGANYQIKIHDGPAVNRHRPSVDVLFHSVAKQAGRNAVGVILTGMGNDGAAGMLAMRQAGAWTLAQNEASCVVFGMPREAINMGGVCEVVDLSQVSQQMLAKISAGQAIRI
Consider B1, for which the “dwell time (1/koff)” value in test [1] is 1.7 ± 0.1 s; in test [2] (propagated SD), 2.1 ± 0.4 s; in test [3] (propagated SD), 2.1 ± 0.1 s; in test [4], 2.3 ± 0.2 s. Further, the “KA (equilibrium association constant)” value in test [1] is reported as 0.8 ± 0.1 10^3 M^-1; in test [2] (setting [6]) it was 0.7 ± 0.2 10^3 M^-1; in test [3] (setting [6]), 1.7 ± 0.4 10^3 M^-1; in test [4], 1.5 ± 0.3 10^3 M^-1. The “kon (apparent association rate constant)” value in test [1] is 480 ± 20 M⁻¹ s⁻¹; in test [2], 350 ± 60 M⁻¹ s⁻¹; in test [3], 810 ± 200 M⁻¹ s⁻¹; in test [4] it was 670 ± 140 M⁻¹ s⁻¹. In test [5], this molecule gave a Ka of 800 M⁻¹.

B2: methylesterase/deamidase CheB from E. coli, low-activity, unphosphorylated form (enzyme, UniProt P07330 1-349, looked up)
chain: MSKIRVLSVDDSALMRQIMTEIINSHSDMEMVATAPDPLVARDLIKKFNPDVLTLDVEMPRMDGLDFLEKLMRLRPMPVVMVSSLTGKGSEVTLRALELGAIDFVTKPQLGIREGMLAYNEMIAEKVRTAAKASLAAHKPLSAPTTLKAGPLLSSEKLIAIGASTGGTEAIRHVLQPLPLSSPALLITQHMPPGFTRSFADRLNKLCQIGVKEAEDGERVLPGHAYIAPGDRHMELSRSGANYQIKIHDGPAVNRHRPSVDVLFHSVAKQAGRNAVGVILTGMGNDGAAGMLAMRQAGAWTLAQNEASCVVFGMPREAINMGGVCEVVDLSQVSQQMLAKISAGQAIRI
notes: CheB methylesterase/deamidase of E. coli, unphosphorylated, from plasmid pCW/cheB; measured with 2 mM DTT in the buffer; also called low-activity CheB; unmodified CheB; source: E. coli K-12 RP3098 with pCW/cheB, purified
As usually defined, the Kd is the free concentration of one partner at which half of the binding sites on the other are occupied at equilibrium, for simple one-to-one binding. Regarding B2, the “dwell time (1/koff)” value was 1.5 ± 0.05 s in test [1], 2.2 ± 0.1 s in test [2] (propagated SD), 2.8 ± 0.2 s in test [3] (propagated SD) and 1.6 ± 0.2 s in test [4]. Further, the “KA (equilibrium association constant)” value in test [1] is recorded as 1.7 ± 0.4 10^3 M^-1; in test [2] (setting [6]), 6.3 ± 1 10^3 M^-1; in test [3] (setting [6]) it was 4.4 ± 1 10^3 M^-1; in test [4], 1.2 ± 0.1 10^3 M^-1. For the same molecule, the “kon (apparent association rate constant)” value in test [1] is 1,100 ± 260 M^-1s^-1; in test [2], 2,900 ± 480 M^-1s^-1; in test [3], 1,600 ± 420 M^-1s^-1; in test [4], 750 ± 8 M⁻¹ s⁻¹. In addition, the Kd was 160 ± 30 µM in test [2] (setting [7]) and 230 ± 60 µM in test [3] (setting [7]). In test [5], this molecule came in with a Ka of 1700 M⁻¹.
